According to the nanobody polyreactivity screen of Harvey et al. (2022):

Test: yeast display, Sf9 membrane polyspecificity reagent, FACS + sequencing; frameworks hold sequencing errors
Outline: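 A synthetic nanobody library was expressed on Saccharomyces cerevisiae BJ5465 by galactose induction for 36–48 hours. The library was stained for 1 hour at 4 °C with 10% biotinylated, detergent-solubilized Sf9 membrane reagent and enriched with streptavidin microbeads before FACS. Low and high (top ~1%) gates were set on anti-HA fluorescence for expression and streptavidin fluorescence for reagent binding, and each polyreactivity label reflects the gate of origin.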
In the case of “QVQLVESGGGLVQAGGSLRISCAASGGNFRYYTMGWYRQAPGKERELVAAITRGGRTYYADSVKGRFTISRDNAKNTVYIQMNSLKPEDTAVYYCAAVRPRSPVSYENDYWGQGTQVTVSS”, the “polyreactivity (PSR sort gate)” value is reported as “high polyreactivity”. With “QFHLVETGRGLVQAGGSLRLSCAASGVTYSQYAMGWYRQAPGKERELVARISRRRGSTSYADSVKGRCTISRDNAKNTVYLQMNRMKPEDTAVYYCAKDSPSVYPGRFGNTGGYAYDYWGQGTQVTVSS” the “polyreactivity (PSR sort gate)” value was “high polyreactivity”. With “QVQLVESGGGLVQAGGSLRLSCAAYGFIFRNYAMGWDRQAPGKERELVAAITWRGGSTYYADSVKGRFTISRDNAKNTVYLQMNSLKPEDTAVYYCAARGYRSREDYWGQGTQVTVSS” the “polyreactivity (PSR sort gate)” value was “high polyreactivity”. For “QVQLVESVGGLVQAGGSLRLSCAASGSIFYPYAMGWYRQAPGKERELVAAIRNGRSTYYADSVKGRFTISRDNAKNTVYLKMNSLKPEDTAVYYCAASVRRRHPFEYWGQGTQVTVSS”, the “polyreactivity (PSR sort gate)” value was “high polyreactivity”. For “QVQLVESGGGLVQAGGSLRLSCAASGRTFIYNAMAWYRQAPWKERELVAGITRSGGSTYYADSVKGRFTISRDNAKNTVYLQMNSLKPEDTAVYYCAAARRTKTFSSYYYWGQGTQVTVSS”, the “polyreactivity (PSR sort gate)” value was “high polyreactivity”. With “QVQLVESGGGLVQAGGSLRLSCAASGSIFYPYAMGWYRKAPGKERELVAAIRRSGVDTYYADSVKGRFTISRDYAKNTYNLQMISLKPEDTAVYYCAADPYWFFAHYDSWGQGTQVTVSS” the “polyreactivity (PSR sort gate)” value was “low polyreactivity”. In the case of “QVQLVESGGGLVQAGGSLRLSCAASGRTSSYTMGWYRQAPGKERELVAAITRRGVSTYYADSLKGRFTISRDNAKNTVYFQMNSLKAEDTAVYYCAVGPRASFGYGYWGQGTQVTVSS”, the “polyreactivity (PSR sort gate)” value is reported as “high polyreactivity”. For “QVQLVESGGGLVQAGGSLRLSCAASGSIFDFYAMGWYRQAPGKEREFVAAITQSGASTYADSVKGRFTISRDNAKNTVYLQMNSLKPEDTAVYYCNADSGGRGAPTSTYDYWGQGSQVTVSS”, the “polyreactivity (PSR sort gate)” value was “low polyreactivity”. In the case of “QVQLVESGGGLVQAGGSLRLSCAATGYIFSHYAMGWYRQAPGKERELVAAITRSGGSTYYADSVKGRFTISRDNAKNTVYLQMNSLKPEVTAVYYCAASSLFYYWGQGTQVTVSS”, the “polyreactivity (PSR sort gate)” value is reported as “high polyreactivity”. With “QVQLVESGGVLVQAGGSLRLSCAASGRTFYYYAMGWYRQAPGKERELVASISWDGGNTYYADSVKGRFTISRDTAKNTVYLHMNSLKPEDTAVYYCNRRFYHKDDYWGQGTQVTVSS” the “polyreactivity (PSR sort gate)” value was “high polyreactivity”. In the case of “QVQLVESGGGLVQAGGSLRLSCAASGRIFVRNAMGWYRQAPGKERELVAAITTGGRTYYADSVKGRFTISRDNAKNTVYVQMNSVKPEDTAVYYCAATGDRKGYKYIYSDTNDYWGQGTQVTVSS”, the “polyreactivity (PSR sort gate)” value is reported as “low polyreactivity”. In the case of “QVQLVESGGVLVQAGGSLRLSCAAYGSTLRRYAMGWYRQAPGKERELVAAISYSGGSTYYADSVKGRFTISRDNAKNTVYLQMNSLKPEDTAVYYCAVVTRKGLYDYWGQGTQVTVSS”, the “polyreactivity (PSR sort gate)” value is reported as “high polyreactivity”. In the case of “QVQLVESGGGLVQAGGSLRLSCSASGSIFRVYGMGWYRQAPGKERELVAAITWSGGSTYYADSVKGRFTISRDNAQNTVYLQMNSLKPEDTAVYYCAARARPRYYRQPYDYLGQGTQVTVSS”, the “polyreactivity (PSR sort gate)” value is reported as “high polyreactivity”. With “QVQLVESGGGLVQAGGRLRLSCAASGSTFRPYAMGWYRQAPGKERELVAAITFNGDTYADSVKGRFTISRDNAKNTVYLQMNSLKPEDTAVYYCAARKWYYYLRPWTSVGGYYWGQGTQVTVSS” the “polyreactivity (PSR sort gate)” value was “high polyreactivity”. With “QVQLVESGGGLLQAGGSLRLSCAASGFIFGRNAMGWYRQAPGKERELVAAITRSGGSTYYADSVKGRFTISRDNAKNTVYLQMISLKTEDTAVYYCAKGDFYWGVFRVGIRDDYWGQGTQVNVSS” the “polyreactivity (PSR sort gate)” value was “high polyreactivity”. For “QVQLQESGGGLMQAGGSLRLSCTASGTISDVRVMGWYRQAPGRERELVATISYVTITYYADSVKGRFTISRDSEKHRVSADDEPETGRYRGVLLRYYWGLGTQVTVSS”, the “polyreactivity (PSR sort gate)” value was “low polyreactivity”. In the case of “QVHLVESGGGLVQAGGSLRLSCAASGRTFYDNAMVWYRQAPGKERELVAAISKRGSSTYYADSVKGRFTISRYTAKNSVYLEMNSLKPEDTAVYYCAADSLLGWSVEYWGKGTQVTVSS”, the “polyreactivity (PSR sort gate)” value is reported as “high polyreactivity”. With “QVQLVESGGGLVQAGGSLRLSCAASGFIFGYYAMGGYRQAPGKERELVAAISSSGTRTYYADSVKGRFTISRDNAKNTVYLQMNSLKPEDTAVYYCAVTTAYSGAFYTGEYWGQGTQVTVSS” the “polyreactivity (PSR sort gate)” value was “high polyreactivity”. With “QVQLVDSGGGLVQAGCSLRLSCPASGGTFGYYAMGWYRQAPGKERELVAGINYSGGRTYYADSVKGRFTISRDNAMNTVYLKMDSLKPEDTAVYYCAAQAYVGYRGYDYWVQGTQVTVSS” the “polyreactivity (PSR sort gate)” value was “high polyreactivity”. With “QVQLVESGGGLVQAGGSLRLSCAASGSIFGYYAMGWYRQAPGKERELVAAIDSGGSTYYADSVKGRFTISRDNAKNTVYLQMNSLKPEDTAVYYCATDYSGLRYDYWGQGTQVTVSS” the “polyreactivity (PSR sort gate)” value was “low polyreactivity”. For “QVQLLESGGGLVQAGGSLRLSCAASGSIFTPNNMGWYRQAPGKESEFVAAITFSGGSTYYADSVKGRFTISRDNAKNTVYLQMNSLKPEDTSVYYCAAVYPTYDWYTPAYYYWGQGTQVTVSS”, the “polyreactivity (PSR sort gate)” value was “low polyreactivity”. For “QVQLVESGGGLVQAGGSLRLSCAASGNIFYNGMGWYRQAPGKERELVAAIRGSGGRTYADSVKGRFTISRDNAKNTVYLQMNSLKPEDTAVYYCATRRWYAYGVYYWGQGTQVTVSS”, the “polyreactivity (PSR sort gate)” value was “high polyreactivity”. For “QVQLVESGGGLVQAGGSLRLSCAASGGTFAYKAMGWYRQAHGKERQLVAAITSSGGSTYYADSVKGRFTISRDNAKNTVYLQMNRLKPEDTAVYYCNRLRNRSLGGYYYWGQGTQVTVSS”, the “polyreactivity (PSR sort gate)” value was “high polyreactivity”. For “QVQLVESGGGLVQAGGSLRLSCAASGRTFTRYAMGWYRQAPGKERELVAAITSSGRTYYADSVKGRFTISRDNAKNTVYLQMNSLKPEDTAVYYCAARGVYVKYYYWGQGTQVTVSS”, the “polyreactivity (PSR sort gate)” value was “high polyreactivity”. For “QVQLVESGVGLVQAGGTLRLSCAASGFIFRKYGMGWYRQAPGKERELVAAIRFTGGSTRYADSVKGRFTISRDNAKNTVYLQMNSLIPEDTAVYYCNADRVYVRGRFTYDYWGQGTQVTVSS”, the “polyreactivity (PSR sort gate)” value was “low polyreactivity”. For “QVQLVESGGGLVQAGGSLRLSCAASGSIFGRYGAMGWYRQAPGKDRELVAAIRTSGVSTYYADSVKGRYTISRDNAKKTVYLQMNSLKPEDTAVYYCAKGYTSYNLGKYGYWGQGTQVTVTS”, the “polyreactivity (PSR sort gate)” value was “high polyreactivity”. For “QVQLVESGGGLVHAGGSLRLSCAASGSTLGYNVMGWYRQAPGKERELVAAISGDGSTNYADSVKGRFTISRDNAKNTVYLQMNSLKREDTEVYYCNAPFWGYRTSFSYPVVQRFDYWGQGTHVTVSS”, the “polyreactivity (PSR sort gate)” value was “low polyreactivity”. In the case of “LVQLVESGGGLVQAGGSLRLSCAASGSIFSVYAMGWYRQAPGKERELVAAITWRGGNTYYADSVKGRFTLSRDNAKNTVYLQMNSLKPEDTAVYYCNRVYRQRLGRDYWGQGTQVTVSS”, the “polyreactivity (PSR sort gate)” value is reported as “high polyreactivity”. With “QVLLVESGGGLVQAGGSLRLSCAASGSIFGYKDMGWYRQAPGKERELVASITRGGGRTRYADSVKGRFTISRDNAKNTVYLQMNSLKPEDTAVYYCAADKLSYSYVRPPRNHEDYWGQGTQVTVSS” the “polyreactivity (PSR sort gate)” value was “low polyreactivity”. With “QVQLVESGGRLVQAGGSLRLSCAASGRTFRSHTKGWYRKAPGKERELVAAIIIGGSTYYADTVKGRFTISRDNAKNTVYLQMNSLKPEDSAVYYCARFYRYSRDYWGQGTQVTVSS” the “polyreactivity (PSR sort gate)” value was “high polyreactivity”. With “QVQLVESGGGLVQAGGSLRLSCAASGLIFYGNAMGWSRQAPGKERELVAAISRRGGRTYYADSVKGRFTISRDNAKNTVYLQMNSLKPEDTAVYYCDADVIYSGDYWGQGTQVTVSS” the “polyreactivity (PSR sort gate)” value was “high polyreactivity”. In the case of “QVQLVESGGGLVQAGGSLRLSCAASGITFILNPMGWNRQAPGKEREFVAAISTSGGNTYYADSVKGRFTISRDYAKYTVYLEMNSLKPEDTAVYYCNADWGVVYISYSPEYDYWGHGTQVTVSS”, the “polyreactivity (PSR sort gate)” value is reported as “low polyreactivity”. For “QVQRVESGGGIVQARGSLRLSCAASGRIFKTNAMRCYRQSRGKERELVAAISSSGGSTYYADSVKGRFTISRDNAKNTVDLQRNSLNPEDTAVYYCAADGRTKGYDSLGQGTQVTVSS”, the “polyreactivity (PSR sort gate)” value was “high polyreactivity”. With “KVQLVESGGGLFQAVGSLRLSCADSGRTLGGYAMGWYRQAPGKDRELVAAITSDTGTNYADSVKGRFTISRDNAKNTVYLQMNSLKPEDTAVYYCAAERFYEYDYWGQGTQVTVSS” the “polyreactivity (PSR sort gate)” value was “low polyreactivity”. With “QVQLVESGGGLVQAGGSLRLSCAASGNTFRLYAMGWYRQAPGKERELVATITSGVSTNYADSVKGRFTISRDNAKNTVYLQMNSLKPEDTAVYYCAARHYYTYSSGFGRYIYTEYYWGQGTQVTVSS” the “polyreactivity (PSR sort gate)” value was “low polyreactivity”. For “QVKLVESGGGLVQAGGSLRLSCAASGRIFVSKAMGWYRQAPGKERELVAAISKRGASTYYADSVKGRFTISRDKAKNPVYLQINSLKPEDTEVYYCNVVTTGGPNYDYWGQGTQVTVSS”, the “polyreactivity (PSR sort gate)” value was “high polyreactivity”. For “QVQLVESGGGLVQAGGSLRLSCAASGSNFFYNVMGWYRQAPGKERELVAAITRSGGRTYYADSVKGRFTISRDNAKNTVYLQMNSLKPEDTAVYYCAAALGGKFDYWGQGTQVTVSS”, the “polyreactivity (PSR sort gate)” value was “high polyreactivity”. With “QVQLVESGGGLVQAGGSLRLSCDASGSTFTGYAMGWYRQAPGKERELVAAISRSGGSTSYADSVKGRFTISRDNAKNTVYLQMNSLKPEDTAGYYCAAQVQGTTRAKQRGGIGELDYWGQGTQVTVSS” the “polyreactivity (PSR sort gate)” value was “low polyreactivity”. In the case of “QVQLVESGGGLVQAGGSLRLSCAPSGSTFYYYAMGWYRQAPGKERELVAAITYRGGTYYADSVKGRFTISRDNAKNTVYLQMNSLKPEDTAVYYCAAPLSRIMDYWGQGTQVTVSS”, the “polyreactivity (PSR sort gate)” value is reported as “high polyreactivity”. With “QVQLVESGGGLVQGGGSLRLSCAASGRTFYRYVMGWYRQAPGKERELVADISRRGGRTYYADSVKGRFTISRDNAKNTVYLQMNSLKPEDTAVYYCAAGQLGDYWGLGTQVTVSS” the “polyreactivity (PSR sort gate)” value was “high polyreactivity”. With “QVQLVESGGGLVQAGGSLRLSCAASGFNFTTYAMGSYRHAPGKERELVAAISGRGGTTDYADSVKGRFTISRDNAKNTVYLHMNSLKPEATAVYYCAADGYPGDDYWGQGTQVTVST” the “polyreactivity (PSR sort gate)” value was “high polyreactivity”. With “QVQLVESGGGLVQAGGSLRLSCAASGSTFNRYAMGWYRQAPGKERELVASISWGGGRTYYADSVKGRFTISRDNAKNTVYLQMNSLKPEDTAVYYCATDRYYRHYEVDYWGQGTQVTVSS” the “polyreactivity (PSR sort gate)” value was “low polyreactivity”. With “QVQLVESGGGLVQAGGSLRLSCAASGSIIVGYAMGWYRQAPGTERELVAAISWSGGRTYYADSVKGRFTISRDNAKNSVYLQMNSLKPEDTAVYYCATVTKGSLRYNYNYWGQGTQVTVSS” the “polyreactivity (PSR sort gate)” value was “high polyreactivity”.
